Experiments:
[1] = target: T1, human LRP6 (hLRP6) protein (Cat. No. 1505-LR-025, R&D, USA) (human, UniProt O75581 20-1368, limits assumed); test: ELISA, 100 ng hLRP6 coated, DKK2 protein diluted serially from 100 nM, KD calculated from absorbance at 490 nm
T1 construct: Coated on the ELISA plate
T1 sequence (looked up): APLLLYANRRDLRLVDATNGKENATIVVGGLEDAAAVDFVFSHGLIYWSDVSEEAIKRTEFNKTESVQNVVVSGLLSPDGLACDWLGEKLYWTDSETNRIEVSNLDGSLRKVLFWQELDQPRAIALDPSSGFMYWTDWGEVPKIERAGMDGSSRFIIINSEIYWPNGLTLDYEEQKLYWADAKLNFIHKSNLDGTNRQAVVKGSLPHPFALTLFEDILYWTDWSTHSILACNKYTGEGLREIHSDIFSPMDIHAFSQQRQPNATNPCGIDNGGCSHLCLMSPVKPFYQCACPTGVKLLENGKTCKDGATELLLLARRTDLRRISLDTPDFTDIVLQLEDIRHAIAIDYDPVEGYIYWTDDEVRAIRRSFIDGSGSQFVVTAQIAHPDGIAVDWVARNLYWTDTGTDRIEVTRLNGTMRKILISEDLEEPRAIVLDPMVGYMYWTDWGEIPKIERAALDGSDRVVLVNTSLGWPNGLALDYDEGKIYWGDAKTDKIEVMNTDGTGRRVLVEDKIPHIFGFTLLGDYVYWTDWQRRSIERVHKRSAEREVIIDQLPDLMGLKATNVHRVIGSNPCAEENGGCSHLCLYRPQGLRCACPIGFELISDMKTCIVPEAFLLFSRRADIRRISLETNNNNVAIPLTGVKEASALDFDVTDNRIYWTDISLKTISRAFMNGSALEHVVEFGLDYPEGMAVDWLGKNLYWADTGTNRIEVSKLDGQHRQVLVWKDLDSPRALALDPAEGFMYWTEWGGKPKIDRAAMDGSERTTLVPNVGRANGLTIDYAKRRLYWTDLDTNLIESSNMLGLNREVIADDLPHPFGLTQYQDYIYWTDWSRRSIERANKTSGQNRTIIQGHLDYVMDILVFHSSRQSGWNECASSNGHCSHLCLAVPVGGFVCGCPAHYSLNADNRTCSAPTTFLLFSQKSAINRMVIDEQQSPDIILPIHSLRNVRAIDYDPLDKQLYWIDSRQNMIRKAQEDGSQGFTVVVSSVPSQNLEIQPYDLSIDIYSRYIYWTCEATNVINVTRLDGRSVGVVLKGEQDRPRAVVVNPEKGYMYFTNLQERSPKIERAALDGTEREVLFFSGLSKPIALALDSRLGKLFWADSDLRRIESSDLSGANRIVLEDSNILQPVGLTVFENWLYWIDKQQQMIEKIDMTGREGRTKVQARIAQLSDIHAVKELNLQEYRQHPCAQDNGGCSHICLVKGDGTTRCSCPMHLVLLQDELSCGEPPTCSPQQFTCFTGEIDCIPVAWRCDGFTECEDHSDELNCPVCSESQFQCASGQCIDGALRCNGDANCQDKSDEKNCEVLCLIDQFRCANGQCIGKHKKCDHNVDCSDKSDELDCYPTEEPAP
Procedure: (§1) Each purified DKK2 protein and 100 μl of 1% (w/v) skim milk/1×PBS were mixed to prepare 100 nM of DKK2 protein, and 100 nM of DKK2 protein was subjected to ¼ serial dilution. The diluted protein was applied to the prepared ELISA plate, and incubated at room temperature for about 2 hours. Thereafter, the plate was washed with 200 μl of PBST five times.
(§2) 2 μl of anti-Human Fc-HRP (Cat. No. 31413, Thermo, USA) antibody was mixed with 4 ml of PBS containing 1% (w/v) skim milk, and 200 μl of this mixture was added to each well of ELISA plate and incubated at room temperature for 1 hour. Thereafter, the secondary antibody of the ELISA plate was removed, and the plate was washed with 200 of PBS five times. 10 μl of H₂O₂ solution (Cat. No. H1009-100ML, Sigma, USA), 10 ml of PC buffer (5.1 g of citric acid monohydrate, 7.3 g of sodium phosphate/L (pH 5.0)), and one tablet of OPD (Cat. No. P8787-100TAB, Sigma, USA) were mixed to prepare a mixture, and a total volume of 100 μl of the mixture was added to each well. Incubation was performed at room temperature in the dark for 10 minutes, followed by color development. Thereafter, 50 μl of a stop buffer was added to each well to terminate the color development. Absorbance at 490 nm was measured using an ELISA reader, and a dissociation constant KD value (M) was calculated from the measured absorbance. […]

[2] = target: T2, mouse LRP6 (mLRP6) protein (Cat. No. 2960-LR-025, R&D, USA) (mouse, UniProt O88572 20-1370, limits assumed); test: ELISA, 100 ng mLRP6 coated, DKK2 protein diluted serially from 100 nM, KD calculated from absorbance at 490 nm
T2 construct: Coated on the ELISA plate
T2 sequence (looked up): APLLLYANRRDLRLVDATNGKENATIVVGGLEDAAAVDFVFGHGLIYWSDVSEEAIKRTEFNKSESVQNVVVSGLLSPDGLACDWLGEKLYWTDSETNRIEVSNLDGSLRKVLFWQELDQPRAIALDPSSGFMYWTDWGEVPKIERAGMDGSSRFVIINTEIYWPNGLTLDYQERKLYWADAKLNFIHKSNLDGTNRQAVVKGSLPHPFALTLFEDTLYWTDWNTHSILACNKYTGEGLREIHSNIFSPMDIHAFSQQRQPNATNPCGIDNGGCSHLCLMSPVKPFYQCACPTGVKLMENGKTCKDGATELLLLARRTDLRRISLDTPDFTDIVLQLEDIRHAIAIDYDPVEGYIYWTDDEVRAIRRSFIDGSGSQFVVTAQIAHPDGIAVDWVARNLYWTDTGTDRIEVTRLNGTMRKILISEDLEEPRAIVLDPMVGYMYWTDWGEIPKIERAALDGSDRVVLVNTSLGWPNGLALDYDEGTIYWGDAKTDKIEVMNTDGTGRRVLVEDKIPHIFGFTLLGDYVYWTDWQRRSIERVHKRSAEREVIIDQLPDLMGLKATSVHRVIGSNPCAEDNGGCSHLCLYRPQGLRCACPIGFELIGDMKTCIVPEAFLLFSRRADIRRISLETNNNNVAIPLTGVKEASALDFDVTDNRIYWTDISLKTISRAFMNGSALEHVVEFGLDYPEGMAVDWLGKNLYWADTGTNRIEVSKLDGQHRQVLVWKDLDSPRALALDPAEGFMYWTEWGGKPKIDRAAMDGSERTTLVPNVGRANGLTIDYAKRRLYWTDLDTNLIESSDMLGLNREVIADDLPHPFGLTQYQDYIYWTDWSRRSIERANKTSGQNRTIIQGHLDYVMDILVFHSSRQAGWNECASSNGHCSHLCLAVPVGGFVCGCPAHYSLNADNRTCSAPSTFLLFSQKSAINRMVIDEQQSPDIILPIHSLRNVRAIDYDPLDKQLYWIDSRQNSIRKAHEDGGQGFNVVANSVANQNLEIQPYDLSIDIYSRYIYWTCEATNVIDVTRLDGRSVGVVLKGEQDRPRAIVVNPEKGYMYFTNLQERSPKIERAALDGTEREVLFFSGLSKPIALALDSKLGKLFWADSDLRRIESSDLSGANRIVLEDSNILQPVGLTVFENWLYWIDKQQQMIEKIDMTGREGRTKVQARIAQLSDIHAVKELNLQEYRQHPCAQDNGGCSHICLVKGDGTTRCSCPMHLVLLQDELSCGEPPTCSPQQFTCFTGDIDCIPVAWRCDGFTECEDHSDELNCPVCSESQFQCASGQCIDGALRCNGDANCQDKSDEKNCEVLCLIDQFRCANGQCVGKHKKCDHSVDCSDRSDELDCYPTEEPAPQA
Procedure: as §1, §2

Kd [1]: 90 nM
Kd [2]: 270 nM
B1: wild-type DKK2 (Cat. No. 6628-DK-010, R&D, USA) (ligand)
chain: KLNSIKSSLGGETPGQAANRSAGMYQGLAFGGSKKGKNLGQAYPCSSDKECEVGRYCHSPHQGSSACMVCRRKKKRCHRDGMCCPSTRCNNGICIPVTESILTPHIPALDGTRHRDRNHGHYSNHDLGWQNLGRPHTKMSHIKGHEGDPCLRSSDCIEGFCCARHFWTKICKPVLHQGEVCTKQRKKGSHGLEIFQRCDCAKGLSCKVWKDATYSSKARLHVCQKI
notes: Bought protein; also called wild-type DKK2 protein
